According to paper PMC2018643 (Nucleic Acids Research, 2007):

Biological target: the molecule itself
Test: SEC

B1: His(6)-Rrp47p (natural protein, S. cerevisiae, UniProt P38801 1-184, looked up)
chain: MEDIEKIKPYVRSFSKALDELKPEIEKLTSKSLDEQLLLLSDERAKLELINRYAYVLSSLMFANMKVLGVKDMSPILGELKRVKSYMDKAKQYDNRITKSNEKSQAEQEKAKNIISNVLDGNKNQFEPSISRSNFQGKHTKFENDELAESTTTKIIDSTDHIRKASSKKSKRLDKVGKKKGGKK
- stoichiometry N: 6
